Measured values from patent US20220162261A1 (published 2022).
Numbered stars: 1 amine (or outer) side, 2 acyl side, 3 side chain; on linkers, the order of the positions; unused ones are H or OH. Bridge positions count the residues as written; N and C are the ends. Square brackets hold non-standard residues; d marks the D form. Ends that are not written are not given here. Glu(OMe) = L-glutamic acid gamma-methyl ester, COC(=O)CC[C@H](N[*:1])C(=O)[*:2]; Phe(4-COOH) = N[C@@H](Cc1ccc(C(=O)O)cc1)C(=O)O; Phe(4-tBu) = CC(C)(C)c1ccc(C[C@H](N)C(=O)O)cc1; NMeR = CN[C@@H](CCCNC(=N)N)C(=O)O; β3hE = N[C@@H](CCC(=O)O)CC(=O)O; NMeK = CN[C@@H](CCCCN)C(=O)O; Pen = CC(C)(S)[C@H](N)C(=O)O; βAla = NCCC(=O)O

Columns and labels:
[1] = target: T1, human α4β7 integrin on cells (human, UniProt P13612 34-1032; P26010 20-798); test: RPMI8866 cell adhesion to MAdCAM-1
T1 construct: whole, on cells; also called α4β7 cell (Hu); RPMI8866 cells

[2] = target: T2, rh integrin α4β7 (R&D Systems #5397-A30) (human, UniProt P13612 34-970; P26010 20-723); test: competition ELISA vs MAdCAM-1
T2 construct: bought; coated on a nickel coated plate; also called immobilized α4β7; immobilized α4β7 integrin protein

[3] = target: T3, α4β1 (R&D Systems #5668-A4) (UniProt P13612 34-970; P05556 21-728, limits assumed); test: competition ELISA vs VCAM-1
T3 construct: bought; also called soluble α4β1

[4] = target: T4, mouse α4β7 integrin on TK1 cells (mouse, UniProt Q00651 41-1039; P26011 20-806); test: TK1 cell adhesion to MAdCAM-1
T4 construct: whole, on cells; also called α4β7 cell (Mu); Cell Adhesion α4β7 Mouse
T4 sequence (Q00651 41-1039, chain 1 of 2): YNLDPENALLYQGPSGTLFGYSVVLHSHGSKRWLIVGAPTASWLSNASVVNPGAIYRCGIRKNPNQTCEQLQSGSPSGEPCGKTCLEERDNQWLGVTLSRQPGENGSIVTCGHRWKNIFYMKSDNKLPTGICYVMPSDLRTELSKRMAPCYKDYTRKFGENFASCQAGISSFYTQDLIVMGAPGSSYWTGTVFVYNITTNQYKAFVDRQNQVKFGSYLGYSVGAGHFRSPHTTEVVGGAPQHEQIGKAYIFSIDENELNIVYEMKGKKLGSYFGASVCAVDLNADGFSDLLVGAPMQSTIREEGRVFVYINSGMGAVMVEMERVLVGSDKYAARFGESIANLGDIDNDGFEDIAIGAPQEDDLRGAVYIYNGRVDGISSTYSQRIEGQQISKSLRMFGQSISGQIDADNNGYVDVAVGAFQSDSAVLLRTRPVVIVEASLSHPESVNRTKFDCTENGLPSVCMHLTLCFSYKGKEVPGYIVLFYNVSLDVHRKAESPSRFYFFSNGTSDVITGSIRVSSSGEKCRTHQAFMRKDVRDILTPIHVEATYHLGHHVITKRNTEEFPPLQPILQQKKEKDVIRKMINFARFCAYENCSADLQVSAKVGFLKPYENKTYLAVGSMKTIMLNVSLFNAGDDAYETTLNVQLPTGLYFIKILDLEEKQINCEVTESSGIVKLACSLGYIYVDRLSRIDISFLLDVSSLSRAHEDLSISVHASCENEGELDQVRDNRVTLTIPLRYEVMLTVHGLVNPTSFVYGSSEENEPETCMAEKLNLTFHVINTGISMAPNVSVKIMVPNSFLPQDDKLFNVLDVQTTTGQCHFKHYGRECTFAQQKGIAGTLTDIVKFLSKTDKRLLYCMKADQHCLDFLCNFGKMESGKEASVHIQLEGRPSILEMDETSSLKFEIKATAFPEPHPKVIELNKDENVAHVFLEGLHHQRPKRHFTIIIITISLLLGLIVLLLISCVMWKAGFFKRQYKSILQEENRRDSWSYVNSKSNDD
T4 sequence (P26011 20-806, chain 2 of 2): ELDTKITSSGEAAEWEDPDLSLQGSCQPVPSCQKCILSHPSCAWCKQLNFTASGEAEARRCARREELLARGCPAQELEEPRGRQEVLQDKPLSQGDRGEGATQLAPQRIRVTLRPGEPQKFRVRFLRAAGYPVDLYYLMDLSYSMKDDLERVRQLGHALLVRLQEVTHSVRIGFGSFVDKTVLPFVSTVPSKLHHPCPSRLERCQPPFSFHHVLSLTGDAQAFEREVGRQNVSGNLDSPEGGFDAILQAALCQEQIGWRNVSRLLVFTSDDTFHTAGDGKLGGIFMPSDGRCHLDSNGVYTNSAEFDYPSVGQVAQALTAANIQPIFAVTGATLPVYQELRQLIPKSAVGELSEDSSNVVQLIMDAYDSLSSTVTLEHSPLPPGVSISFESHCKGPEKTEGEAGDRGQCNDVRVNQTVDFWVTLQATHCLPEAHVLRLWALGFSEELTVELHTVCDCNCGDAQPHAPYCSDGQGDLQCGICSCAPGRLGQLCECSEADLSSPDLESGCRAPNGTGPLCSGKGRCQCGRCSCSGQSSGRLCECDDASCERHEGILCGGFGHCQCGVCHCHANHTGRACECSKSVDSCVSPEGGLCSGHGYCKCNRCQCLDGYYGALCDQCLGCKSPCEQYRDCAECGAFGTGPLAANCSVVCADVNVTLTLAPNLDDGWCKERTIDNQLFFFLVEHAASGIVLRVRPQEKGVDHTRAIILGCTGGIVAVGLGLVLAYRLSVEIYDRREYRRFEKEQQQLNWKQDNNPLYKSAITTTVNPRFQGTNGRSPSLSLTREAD

[5] = target: T1, human α4β7 integrin on cells; test: PBMC memory T cell adhesion

Binder | IC50 [1] | IC50 [2] | IC50 [3] | IC50 [4] | IC50 [5]
Ac-[Pen][NMeR]SDTL[Pen][Phe(4-tBu)][β3hE]-NH2 (disulfide 1-7; SMILES CC(=O)N[C@@H]1C(=O)N(C)[C@@H](CCCNC(=N)N)C(=O)N[C@@H](CO)C(=O)N[C@@H](CC(=O)O)C(=O)N[C@@H]([C@@H](C)O)C(=O)N[C@@H](CC(C)C)C(=O)N[C@H](C(=O)N[C@@H](Cc2ccc(C(C)(C)C)cc2)C(=O)N[C@@H](CCC(=O)O)CC(N)=O)C(C)(C)SSC1(C)C) [SEQ ID NO: 165] | > 0.01 µM | – | – | – | > 0.1 µM
Ac-[Pen][NMeR]SDTL[Pen][Phe(4-COOH)][β3hE][dK]-NH2 (disulfide 1-7; not fully specified (residue 10); printed as (Ac Pen N-Me-R S D T L Pen F(4-COOH) b-H-E k NH2)2 DIG, disulfide Pen-Pen; also: homodimer, two subunits joined by DIG linker) [SEQ ID NO: 130] | ≤ 0.01 µM | ≤ 0.01 µM | – | – | ≤ 0.01 µM
Ac-[Pen][NMeR]SDTL[Pen][Phe(4-tBu)][β3hE][dK]-NH2 (disulfide 1-7; not fully specified (residue 10); printed as (Ac Pen N-Me-R S D T L Pen F(4-tBu) b-H-E k NH2)2 IDA, disulfide Pen-Pen; also: homodimer (…)2 IDA via D-Lys10 NZ) [SEQ ID NO: 166] | ≤ 0.01 µM | – | – | – | ≤ 0.01 µM
Ac-[Pen][NMeR]SDTL[Pen][Phe(4-COOH)]E[dK]-NH2 (disulfide 1-7; not fully specified (residue 10); printed as (Ac Pen N-Me-R S D T L Pen F(4-COOH) E k NH2)2 DIG, disulfide Pen-Pen; also: homodimer: two subunits joined by DIG linker) [SEQ ID NO: 129] | ≤ 0.01 µM | ≤ 0.01 µM | – | – | ≤ 0.01 µM
Ac-[Pen][NMeR]SDTL[Pen][Phe(4-COOH)]E[NMeK]-NH2 (disulfide 1-7; not fully specified (residue 10); printed as (Ac Pen N-Me-R S D T L Pen F(4-COOH) E N-Me-K NH2)2 DIG, disulfide Pen-Pen; also: homodimer (…)2 DIG via Lys10 NZ) [SEQ ID NO: 147] | ≤ 0.01 µM | ≤ 0.01 µM | – | ≤ 0.01 µM | ≤ 0.01 µM
Ac-[Pen][NMeR]SDTL[Pen][Phe(4-COOH)][β3hE][NMeK]-NH2 (disulfide 1-7; not fully specified (residue 10); printed as (Ac Pen N-Me-R S D T L Pen F(4-COOH) b-H-E N-Me-K NH2)2 DIG, disulfide Pen-Pen; also: homodimer (…)2 DIG via Lys10 NZ) [SEQ ID NO: 148] | ≤ 0.01 µM | ≤ 0.01 µM | – | ≤ 0.01 µM | –
XRSDTLXWE (Ac Pen N-Me-R S D T L Pen W b-H-E OH; disulfide Pen-Pen) [SEQ ID NO: 146] | > 0.05 µM | – | > 1 µM | > 0.05 µM | –
Ac-[Pen][NMeR]SDTL[Pen][Phe(4-tBu)][β3hE][dK]-OH (disulfide 1-7; not fully specified (residue 10); printed as (Ac Pen N-Me-R S D T L Pen F(4tBu) b-H-E k OH)2 DIG, disulfide Pen-Pen; also: homodimer (…)2 DIG via D-Lys10 NZ) [SEQ ID NO: 168] | ≤ 0.01 µM | – | – | – | ≤ 0.01 µM

The remaining lines, values ahead:

IC50 [1] | IC50 [2] | IC50 [3] | IC50 [4] | IC50 [5] | Binder
≤ 0.01 µM | ≤ 0.01 µM | > 0.5 µM | – | – | Ac-[Pen][NMeR]SDTL[Pen]W[β3hE][NMeK]-NH2 (disulfide 1-7; not fully specified (residue 10); printed as (Ac Pen N-Me-R S D T L Pen W b-H-E N-Me-K NH2)2 DIG, disulfide Pen-Pen; also: homodimer (…)2 DIG via Lys10 NZ) [SEQ ID NO: 141]
≤ 0.01 µM | ≤ 0.01 µM | > 0.1 µM | – | – | Ac-[Pen][NMeR]SDTL[Pen]YE[dK]-NH2 (disulfide 1-7; not fully specified (residue 10); printed as (Ac Pen N-Me-R S D T L Pen Y E k NH2)2 DIG, disulfide Pen-Pen; also: dimer, two subunits joined by DIG linker) [SEQ ID NO: 22]
≤ 0.01 µM | – | – | ≤ 0.01 µM | – | Ac-[Pen][NMeR]SDTL[Pen]W[Glu(OMe)][dK]-NH2 (disulfide 1-7; not fully specified (residue 10); printed as (Ac Pen N-Me-R S D T L Pen W E(OMe) k NH2)2 DIG, disulfide Pen-Pen; also: homodimer: two subunits linked by DIG via D-Lys10 side chain) [SEQ ID NO: 86]
> 0.025 µM | – | > 0.1 µM | – | – | [βAla][Pen][NMeR]SDTL[Pen]WE-NH2 (disulfide 2-8; not fully specified (N-terminus); printed as DIG (NH2 Beta-Ala Pen N-Me-R S D T L Pen W E NH2)2, disulfide Pen-Pen; also: homodimer: two subunits linked by DIG via N-terminal Beta-Ala amine, linker printed at the N-terminus) [SEQ ID NO: 54]
≤ 0.01 µM | – | – | – | ≤ 0.01 µM | Ac-[Pen][NMeR]SDTL[Pen][Phe(4-tBu)][β3hE][dK]-NH2 (disulfide 1-7; not fully specified (residue 10); printed as (Ac Pen N-Me-R S D T L Pen F(4-tBu) b-H-E k NH2)2 IDA PEG4 Biotin, disulfide Pen-Pen; also: homodimer (…)2 IDA PEG4 Biotin via D-Lys10 NZ) [SEQ ID NO: 167]
> 0.01 µM | > 0.01 µM | > 1 µM | > 0.01 µM | – | Ac-[Pen][NMeR]SDTL[Pen][Phe(4-tBu)][β3hE][dK]-NH2 (disulfide 1-7; SMILES CC(=O)N[C@@H]1C(=O)N(C)[C@@H](CCCNC(=N)N)C(=O)N[C@@H](CO)C(=O)N[C@@H](CC(=O)O)C(=O)N[C@@H]([C@@H](C)O)C(=O)N[C@@H](CC(C)C)C(=O)N[C@H](C(=O)N[C@@H](Cc2ccc(C(C)(C)C)cc2)C(=O)N[C@@H](CCC(=O)O)CC(=O)N[C@H](CCCCN)C(N)=O)C(C)(C)SSC1(C)C) [SEQ ID NO: 153]
– | ≤ 0.01 µM | – | – | ≤ 0.01 µM | Ac-[Pen][NMeR]SDTL[Pen][Phe(4-tBu)]E[NMeK]-NH2 (disulfide 1-7; not fully specified (residue 10); printed as (Ac Pen N-Me-R S D T L Pen F(4tBu) E N-Me-K NH2)2 DIG, disulfide Pen-Pen; also: homodimer, two subunits joined by DIG linker) [SEQ ID NO: 133]
